This is an account of results in patent US20080233097A1, “Phosphorylation Site Of Mitogen-Activated Protein Kinases, Modified Proteins And Applications” (UNIVERSIDAD AUTONOMA DE MADRID, priority 2005, published 2008).

Several values for one entry are separate records, joined by “and”; a condition that tells them apart may be missing. Identical values can stand only once.

The target of data set [1] is T1, p38 (GST-p38) (Mus musculus, UniProt P47811).
T1 construct: with whole p38α in the same conditions as described in section A; made in house; host or cells: E. coli (GST-p38); Sf9 cells with baculovirus (GRK2)
T1 sequence (P47811 whole entry): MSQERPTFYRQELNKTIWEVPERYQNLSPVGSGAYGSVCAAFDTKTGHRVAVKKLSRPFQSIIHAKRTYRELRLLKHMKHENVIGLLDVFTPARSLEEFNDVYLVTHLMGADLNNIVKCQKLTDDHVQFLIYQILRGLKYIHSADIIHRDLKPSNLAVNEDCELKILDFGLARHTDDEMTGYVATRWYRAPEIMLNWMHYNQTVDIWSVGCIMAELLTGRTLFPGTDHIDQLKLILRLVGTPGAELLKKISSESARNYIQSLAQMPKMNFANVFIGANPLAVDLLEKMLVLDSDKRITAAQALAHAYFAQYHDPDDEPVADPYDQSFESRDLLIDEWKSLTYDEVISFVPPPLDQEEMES
In words: p38 phosphorylation by GRK2 in vitro (kinetic characterization). The data set is classed as biochemical. The method, then: Normally, the phosphorylation reactions are left to take place for 30 minutes at 30° C. In the case of two-dimensional electrophoresis or of the samples intended for proteomic sequencing, the reaction extends to 1 or 2 hours.
The Michaelis-Menten behaviour of the kinases was assumed for calculating the kinetic constants of the enzymatic reactions. The graphs were made with the “Kaleidagraph” program, provided with an algorithm capable of deducing the kinetic parameters: Michaelis-Menten constant (Km) and maximum speed (Smax=So (nmol of PO4^3-incorporated. mg of enzyme^−1minute^−1)

Data set [2] deals with T2, Flag-p38α (Mus musculus, UniProt P47811).
T2 construct: expressed in transfected cells; host or cells: HEK 293 cells, co-transfected with pCDNA3-MKK6CAM and with or without pCDNA3-GRK2
T2 sequence (P47811 whole entry): as above
In words: […] peptide phosphorylation by immunoprecipitated Flag-p38. The data set is classed as biochemical. Conditions: HEK 293 cells transfected with Flag-p38α, MKK6CAM and 1 or 2 μg pCDNA3-GRK2.
Procedure: FIG. 4A: HEK 293 cells, seeded in p60, were transiently transfected with 0.5 μg of pCDNA3-Flag-p38α, 0.5 μg of pCDNA3-MKK6CAM(or 0.5 μg of empty pCDNA3 in the control, CTRL), and with 1 or 2 μg of the pCDNA3-GRK2 (+) vector, carrying out each point in duplicate. The controls were carried out in a parallel way, substituting the pCDNA3-GRK2 μg with pCEFL-EGFP (−). The total DNA amount was completed with empty pCDNA3. After 48 hours, the cells were lysed, lysate aliquots were taken and Flag-p38 was immunoprecipitated from them. […] FIG. 4B: The immunoprecipitates were washed three times with 15 ml of M2 buffer and two times with 15 ml of phosphorylation buffer without ATP (15 mM NaF, 25 mM Hepes pH 7.5 and 10 mM magnesium acetate). In the last washing step, the agarose-immune complexes were resuspended in 1 ml of buffer and 10% of each point was separated to control the immunoprecipitation of Flag-p38 (panel inserted in the graph of section B). Kinase-assays were carried out with immunoprecipitated Flag-p38, using [sequence] peptide (initially provided by CalbioChem and subsequently synthesized by the Servicio de Química de Proteínas (Protein Chemistry Service) of the CBMSO) as a substrate. […] ATP and 2 mM of the peptide substrate. […] They were left to dry, were abundantly washed with 75 mM phosphoric acid and the radioactivity incorporated by the adsorbed peptide was quantified by Cerenkov. […]

For data set [3], the system named is 3T3-L1 cells. In words: adipocyte differentiation of 3T3-L1 (Oil Red staining, adipocyte count). The data set is classed as cell-based. The source says:
3T3L1 lines stably transfected with pCDNA3-GRK2 and pCDNA3-GRK2K220R were made. GRK2 (anti-GRK2) expression controls obtained in cell lines, compared to 3T3L1 levels, are included. The cells were subjected to a standard differentiation treatment and on day 15 of the latter, the cells were fixed with formalin and stained with Oil Red, a lipophilic coloring which binds to the fats accumulated by the adipocytes. The cells with adipocytic phenotype (in red) were counted under microscope in a total of 25 fields. Representative photographs of two independent experiments are shown in duplicate. A photo of the 3T3L1 cells, free of stimulation with insulin during the differentiation process (control), is also included. The graph reflects the adipocyte count (±SEM) in these experiments.
The cell culture was carried out with 10% DMEM medium of NCS serum. However, the entire differentiation process which is described below must be performed in depleted AXC serum (ion exchange resin) by means of successive adsorptions of fetal calf serum on an anion exchange resin and on active carbon. AXC serum was provided by the kitchen service of the Instituto of Investigaciones Biomédicas (Biomedical Research Institute). The cells are grown until their confluence and are plated (5×10^5 in P-100) in DMEM-10% AXC medium, supplemented with 4 μM of biotin (Sigma). The following day, the medium is replaced with fresh medium. The cells are grown another three days, until confluence is reached again, that day is called day “0”. On day 0 of differentiation, the cells are cultured in a medium containing: 0.5 μM dexamethasone (Sigma), 0.5 mM 3-isobutyl-1-methylxanthine (IMBX, of Sigma) and 1 μM insulin (Sigma) and in which they will remain for another three days. […] From day 6 to day 15, the adipogenesis was analyzed by staining with Oil Red, a red coloring of lipophilic constitution which binds to the drops of fat accumulated by the adipocytes in their cytoplasm. […] The cells are counted in a total of 25 fields per each experimental plate.

The subject of data set [4] is Flag-p38. Briefly: GRK2 overexpression: p38 activation by MKK6CAM in HEK 293 cells. Conditions: increasing doses of pCDNA3-GRK2 (0 to 1 μg). The data set is classed as cell-based, human. The method, then: FIG. 3A: HEK 293 cells, normally seeded in multiwell plates with 6 or 12 wells (M6 or M12), were transiently transfected with pCDNA3-Flag-p38α, pCDNA3-MKK6CAM, and with increasing amounts of the pCDNA3-GRK2 vector. In this experiment, M6 plates were used and the DNA amounts introduced were: 100 ng of Flag-p38, 100 ng of MKK6CAM, and 0 to 1 μg of GRK2. In all points, the total amount of DNA was completed with pCEFL-EGFP and with empty pCDNA3 instead of pCDNA3-MKK6CAM, in the case of the control (CTRL). After 48 hours, the cells were harvested by lysing them in M2 buffer. […] The p38 activation state was evaluated with anti-phospho-p38, of Cell Signaling, and after giving off the antibodies of the first immunodetection, it was detected with total anti-p38, of the same company. […] The Flag-p38 activation state was determined in the same way as in A. Furthermore, the correct MKK6CAM expression was assured with the anti-MKK6/SKK3 antibody of Upstate Biotechnology. […]
The HE 293 cells, generally subjected to starvation (medium without serum) of a variable duration: 2 hours in the case of p38 and all night in the case of ERK, were stimulated and, after processing the lysate cells, the immunodetection of the phosphoproteins was carried out with the phospho-specific antibodies of the activation segments of both proteins. […] The quantification of the bands was carried out in a laser densitometer. […]

The test system of data set [5] is sinucleins. Conditions: depending on the subtypes; cited from earlier work.
Data set [6] has as its system β-tubulins. The settings on record: depending on the subtypes; cited from earlier work.
Data set [7] concerns phosducin and the protein similar to phosducin (PhD and PhLP). Conditions: cited from earlier work.
In data set [8] the target is T3, GRK2 (Bos taurus, UniProt P21146).
T3 construct: made in house; host or cells: Sf9 cells (baculovirus)
T3 sequence (P21146 1-689): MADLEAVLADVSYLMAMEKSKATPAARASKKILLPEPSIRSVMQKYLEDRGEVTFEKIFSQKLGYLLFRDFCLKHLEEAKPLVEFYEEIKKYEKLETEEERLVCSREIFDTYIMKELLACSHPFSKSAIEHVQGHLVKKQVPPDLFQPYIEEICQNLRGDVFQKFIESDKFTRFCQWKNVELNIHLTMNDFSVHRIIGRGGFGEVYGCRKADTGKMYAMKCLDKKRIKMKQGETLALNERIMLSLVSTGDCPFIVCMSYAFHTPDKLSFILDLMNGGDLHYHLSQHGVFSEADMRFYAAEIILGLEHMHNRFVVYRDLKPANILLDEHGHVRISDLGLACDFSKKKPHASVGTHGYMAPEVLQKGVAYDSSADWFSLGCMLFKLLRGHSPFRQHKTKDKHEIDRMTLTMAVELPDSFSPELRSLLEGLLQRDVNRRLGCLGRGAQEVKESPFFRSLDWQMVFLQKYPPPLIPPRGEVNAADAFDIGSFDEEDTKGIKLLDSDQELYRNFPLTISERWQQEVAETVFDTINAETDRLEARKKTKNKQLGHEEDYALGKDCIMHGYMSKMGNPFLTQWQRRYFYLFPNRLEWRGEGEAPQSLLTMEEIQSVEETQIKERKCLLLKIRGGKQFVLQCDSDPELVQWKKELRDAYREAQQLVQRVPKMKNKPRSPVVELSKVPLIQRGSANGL
In words: GRK2 kinase activity in vitro (casein substrate). The data set is classed as biochemical. Conditions: 0.5 μM.

Data set [9] relates to 3T3-L1 cells. The settings on record: prior demonstration of p38 involvement; cited from earlier work.

On to “GRK2: G protein-coupled receptor kinase 2; recombinant, purified by the Baculovirus system; phosphorylates Thr123 of p38”, for which, in data set [1] (GRK2 25 nM, p38 12.5 to 400 nM, 15 minutes), the “maximum speed (Smax)” value was 0.9 nmol of PO4^3-incorporated per mg GRK2^−1 minute^−1. For the same molecule, the Km – broadly, the concentration of substrate that gives half-maximal velocity – was 0.0796 µM and 0.08 µM in data set [1] (GRK2 25 nM, p38 12.5 to 400 nM, 15 minutes, 30° C., read-out: Michaelis-Menten constant (Km)); 1 to 2 µM in data set [5]; 1 to 2 µM in data set [6]; 0.04 to 0.1 µM in [7]. The stoichiometry of phosphorylation in data set [1] (at least three quantifications by Cerenkov) is reported as 0.4-0.8 mol Pi/mol p38. Also, the “average time for reaching 50% of the maximum phosphorylation” value in data set [1] (time course 0 to 90 minutes) turned out to be 15 min. Moreover, in data set [2], the “catalytic activity of immunoprecipitated p38 on APR peptide” value is reported as “dimmed”. In [3] (3T3L1 lines stably transfected, day 15), the “acquisition of the adipocytic morphology mediated by insulin” value is recorded as “inhibits the acquisition of the adipocytic morphology mediated by insulin”. The “p38 activation dependent on MKK6CAM” value in data set [4] is reported as “decreased more as more amounts of GRK2 were expressed”.
For `C[S+]([O-])c1ccc(-c2nc(-c3ccncc3)c(-c3ccc(F)cc3)[nH]2)cc1` (stereo not shown) [SB203580], in data set [8], the “effect on kinase activity of GRK2” value is “does not affect the kinase activity of GRK2”. In [3] (10 μM, insulin-induced differentiation), the effect on adipogenesis result is on record as “reverses the entire adipogenesis”. For the same molecule, in data set [9], the “effect on differentiation into adipocytes” value is reported as “blocked”.
